Target: fluorescein labelled MPT peptide (UniProt P35579)
Experiment: fluorescence polarisation; S100A4 variant and fluorescein labelled MPT peptide

S100A4 C-terminal deletion mutant (residues 1-88, Δ13) (from UniProt P26447 1-88) (domain or fragment)
Kd: 0.28 nM

wild-type S100A4 (from UniProt P26447 1-101) (natural protein)
Kd: 0.12 nM
